We go through 105 substances from the supplement of paper PMC12042874.

± gives the uncertainty stated by the source.

The nature of this data set: amyloid nucleation score (Sup35N fusion, yeast selection) (log enrichment); library NNK2; higher = more nucleation; inactive = no reads after selection. The essentials: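 Growth for 7 days at 30°C on medium lacking adenine and uracil followed a 24-hour induction with 100 μM copper sulfate of psi-negative yeast expressing peptides of 20 random codons fused to Sup35N. Input and output plasmid inserts were sequenced with Illumina, and sequences with under 100 input reads were excluded. Nucleation score is the DiMSum log enrichment of output over input reads, centred on the mode score of non-aggregating sequences.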
Take TGALHWVNAYVLFRKVCKGM: the amyloid nucleation score worked out at 0.297 ± 0.26.

The substance TGDCC registered an amyloid nucleation score of 0.32 ± 0.33.

Turning to TGFCGRHYDLSSSTEDLYLL, the amyloid nucleation score was determined as 0.606 ± 0.8.

As to TGFSLVFSWFFLNG, the amyloid nucleation score is 3.68 ± 0.099.

Take TGGISYLD: the amyloid nucleation score result is “inactive”.

In turn, TGLAIGCFLVCSVLYGDR had an amyloid nucleation score of 3.17 ± 0.13.

Turning to TGLVMVHSTRVPKRLGMLCL, the amyloid nucleation score amounted to 0.967 ± 0.33.

TGLWDVCQVLIRFRNVFWRN gave an amyloid nucleation score of 3.06 ± 0.079.

Take TGRTTF: the amyloid nucleation score result is “inactive”.

In turn, TGTPYRF gave an amyloid nucleation score of 1.11 ± 0.23.

In the case of THMYCIMVYRRYSGSVGLGY, the amyloid nucleation score turned out to be 0.127 ± 0.77.

In the case of THTSLLSLVP, the amyloid nucleation score was -0.291 ± 0.76.

Substance THVECALMTYPDVYSDEGFI gave an amyloid nucleation score of -0.001 ± 0.32.

As to TIENLNLFWF, the amyloid nucleation score was found to be 5.73 ± 0.06.

The substance TIIRDFSWLHLGFPRACIIT came in with an amyloid nucleation score of -0.976 ± 0.64.

TILWEVVGAL: the amyloid nucleation score amounted to 0.091 ± 0.17.

TIQRRQFVNPDSVVMLRINY came in with an amyloid nucleation score of -0.704 ± 0.76.

Substance TISLPYHHKVSRAMNSRF gave an amyloid nucleation score of -0.028 ± 0.62.

TISLRGDMDSSCKGIEGSSL came in with an amyloid nucleation score of -0.316 ± 1.1.

TITMFHYLRSLSGNSDYGLG came in with an amyloid nucleation score of 2.31 ± 0.1.

For the substance TIWFFFL, the amyloid nucleation score came out at 7.075 ± 0.043.

In the case of TKCVFIVCRLYVFDMVGLYV, the amyloid nucleation score is -0.573 ± 0.78.

TKEFGECFIQMIMYNGRDIL: the amyloid nucleation score came to 1.88 ± 0.1.

Turning to TLAEFGQQPGRGACMYAVNN, the amyloid nucleation score result is “inactive”.

Regarding TLCRAGLNGPWLNVLRFVPR, the amyloid nucleation score was determined as 0.615 ± 0.36.

Take TLDTSYYFLTRVFNHLNISE: the amyloid nucleation score is -0.776 ± 0.55.

In turn, TLELLIMD registered an amyloid nucleation score of 0.385 ± 0.33.

Regarding TLFSMVNSTLNGWWIMT, the amyloid nucleation score was 6.84 ± 0.061.

In the case of TLGPL, the amyloid nucleation score result is “inactive”.

Turning to TLHVVQFWKSCI, the amyloid nucleation score is -0.343 ± 0.45.

With TLKVRNLNVQEFVVSPNQRH, the amyloid nucleation score stood at 4.99 ± 0.088.

With TLLIMCGSISHSFPSECHWL, the amyloid nucleation score came out at 0.716 ± 0.15.

The substance TLLTYMVLKCFQFVSEYLWK had an amyloid nucleation score of 3.7 ± 0.07.

With TLMWESYMWS, the amyloid nucleation score was -0.897 ± 0.63.

Consider TLNLDFFELSMPGDFSDLVS, for which the amyloid nucleation score entry is “inactive”.

TLNMNVSFPIRRAHIYEMLI had an amyloid nucleation score of 0.83 ± 0.48.

Substance TLRHSKFTSIPVIETGLCGV registered an amyloid nucleation score of -1.44 ± 1.1.

For TLRIWYCWHDSAYTSSDHII, the amyloid nucleation score was 1.45 ± 0.2.

Consider TLSSKLFCVKASVRSMGPVV, for which the amyloid nucleation score was found to be 7.723 ± 0.047.

TLSVGVQL yielded an amyloid nucleation score of -0.624 ± 0.63.

Consider TLTPNNSTCTGVCFCLSYNQ, for which the amyloid nucleation score is 9.475 ± 0.059.

As for TLVLTEFDKGIDIVL, the amyloid nucleation score is -0.565 ± 0.26.

Substance TLYKFM yielded an amyloid nucleation score of -0.476 ± 0.74.

Take TMCDSIVIEYGPCIFDSSSS: the amyloid nucleation score turned out to be 4.74 ± 0.056.

Take TMLFRRFYSFMSTL: the amyloid nucleation score is -0.053 ± 1.

The substance TMLSLSDISFQLKKILL yielded an amyloid nucleation score of 2.56 ± 0.15.

Substance TMQSWFSAFYLVVDMPTRYC had an amyloid nucleation score of -0.232 ± 0.29.

The substance TMRVHRYRTN gave an amyloid nucleation score of -0.493 ± 0.63.

For the substance TMVMTVQPPLHLFCLDLMHD, the amyloid nucleation score was 2.24 ± 0.12.

In turn, TMWGNI returned an amyloid nucleation score of -1.59 ± 0.48.

Substance TMYIWRL gave an amyloid nucleation score of 6.58 ± 0.039.

Consider TMYLFGYEV, for which the amyloid nucleation score came out at 1.31 ± 0.35.

TMYVREYSFYFLYNVDITRG showed an amyloid nucleation score of 0.649 ± 0.32.

TNCSPVVPSCD came in with an amyloid nucleation score of 0.224 ± 0.57.

TNDMVDHVRRSNHDI: the amyloid nucleation score was 0.871 ± 0.31.

Regarding TNGLLNYCSRYTDLDNGSYR, the amyloid nucleation score entry was “inactive”.

TNIQN had an amyloid nucleation score of -0.69 ± 0.61.

As for TNKYFCTFGAHGARDLQMHV, the amyloid nucleation score result is “inactive”.

With TNKYLVGSILYLFKHGWLGV, the amyloid nucleation score was 0.067 ± 0.55.

As to TPFAHSGSWCNSERLVPRLV, the amyloid nucleation score is 0.364 ± 0.33.

In turn, TPGLCSNL returned an amyloid nucleation score of -1.44 ± 1.

Substance TPIRVFGNYNSFHFCTMSS returned an amyloid nucleation score of 8.302 ± 0.053.

In turn, TPSDGCQHMASVVISI had an amyloid nucleation score of 0.683 ± 0.8.

Consider TQCSLRLKFTCYAMRSFGQY, for which the amyloid nucleation score was found to be 5.02 ± 0.096.

Substance TRGNM came in with an amyloid nucleation score of 0.63 ± 0.39.

Substance TRINMGIFCLQDKVPMLRDE had an amyloid nucleation score of 3 ± 0.082.

In turn, TRIVS came in with an amyloid nucleation score of -0.415 ± 0.25.

Substance TRMNSVYKVEIRRLVKMVSW displayed an amyloid nucleation score of 0.242 ± 0.21.

TRNWRGYVCYSEVIIVVKQE yielded an amyloid nucleation score of -0.839 ± 0.78.

Consider TRRGF, for which the amyloid nucleation score was -0.357 ± 0.3.

In turn, TRSPCGRCDSEFLNASLAGL returned an amyloid nucleation score of 0.71 ± 0.36.

Substance TRVGGWKTSG yielded an amyloid nucleation score of 0.945 ± 0.32.

Substance TRYYMYIRDVH returned an amyloid nucleation score of -0.533 ± 0.44.

Regarding TSAPSKSLLLGVIIIGAFPD, the amyloid nucleation score entry is “inactive”.

The substance TSERRLNYTCCNYWYMG displayed an amyloid nucleation score of 9.053 ± 0.04.

TSFGWSGSCKLMYSMSTSGT had an amyloid nucleation score of 0.636 ± 0.3.

The substance TSGFSIIRVIVNYIYALETR showed an amyloid nucleation score of 3.86 ± 0.12.

In the case of TSGLAGGDWNWAS, the amyloid nucleation score was 0.314 ± 0.64.

On to TSIYYISNIA, for which the amyloid nucleation score was 0.568 ± 0.24.

The substance TSKWQRNLFGDGSLKEFTGE came in with an amyloid nucleation score of -0.712 ± 1.1.

With TSNCS, the amyloid nucleation score is 0.579 ± 0.3.

TSNRRTYGWHDQTCGQGVWY displayed an amyloid nucleation score of 1.1 ± 0.29.

The substance TSNRTTNSLLMCDKLRNTSV had an amyloid nucleation score of -0.345 ± 0.25.

For the substance TSPRRACWSIQSDDWFGFEW, the amyloid nucleation score was 1.33 ± 0.38.

As for TSQQRAYITP, the amyloid nucleation score is -0.703 ± 1.

In turn, TSSCFDCSFNMEFLMVLVSF gave an amyloid nucleation score of 1.52 ± 0.2.

TSSLDEEALS came in with an amyloid nucleation score of -0.648 ± 0.55.

As for TSSLYISMMVLL, the amyloid nucleation score turned out to be 4.07 ± 0.074.

The substance TSSSYTSTFDRGLMNLRTCL gave an amyloid nucleation score of -0.039 ± 0.25.

Turning to TSSWIMIRS, the amyloid nucleation score came out at 1.52 ± 0.19.

Take TSWCSIHTVMLYLFLIVCQY: the amyloid nucleation score entry was “inactive”.

For TTALGRFMFDLCNDDWYSLV, the amyloid nucleation score result was “inactive”.

Substance TTCDNEREGTLKYVNVCCNL registered an amyloid nucleation score of 5.42 ± 0.045.

TTENNCLVREKVVYGWMWSS gave an amyloid nucleation score of 0.149 ± 0.25.

As for TTFMRVVLFAPVLYMYGKNR, the amyloid nucleation score is 5.492 ± 0.043.

TTGNQLKKCVDKCGGRSGGE yielded an amyloid nucleation score of 0.938 ± 0.45.

As to TTHVNLIKRRGYFRRCVFQL, the amyloid nucleation score is 0.087 ± 0.79.

TTLYGNSRFTVCMTKGW: the amyloid nucleation score is -0.271 ± 0.74.

TTLYMACYSSCDEGN registered an amyloid nucleation score of -0.193 ± 0.27.

Regarding TTRSRVWRKLGSSCTI, the amyloid nucleation score was determined as 0.242 ± 0.31.

Regarding TTSGNTIHIYVIQLSIQKFS, the amyloid nucleation score is 5.39 ± 0.06.

Regarding TVASTYVLVTCHRAFDQS, the amyloid nucleation score worked out at 3.46 ± 0.079.

Regarding TVFWGTMVGPQRGVVGLESF, the amyloid nucleation score worked out at 0.593 ± 0.74.

As for TVGEPIIRLYRFVRFFCLAN, the amyloid nucleation score is -1.79 ± 0.78.

TVGIAKKNMVR showed an amyloid nucleation score of 0.503 ± 0.43.
